Like-named read-outs stand apart in the source and are kept apart here. Each block holds one binder with its values, some of them ahead of it.
Experiments:
cyno 5T4 on CHO cells [1] = molecular target: T1, cyno 5T4 on CHO cells (cyno, UniProt Q4R8Y9 35-420); assay: FACS, CHO cells over expressing cyno 5T4
T1 construct: whole, on cells; also called CHO over expressing cyno 5T4
T1 sequence (looked up): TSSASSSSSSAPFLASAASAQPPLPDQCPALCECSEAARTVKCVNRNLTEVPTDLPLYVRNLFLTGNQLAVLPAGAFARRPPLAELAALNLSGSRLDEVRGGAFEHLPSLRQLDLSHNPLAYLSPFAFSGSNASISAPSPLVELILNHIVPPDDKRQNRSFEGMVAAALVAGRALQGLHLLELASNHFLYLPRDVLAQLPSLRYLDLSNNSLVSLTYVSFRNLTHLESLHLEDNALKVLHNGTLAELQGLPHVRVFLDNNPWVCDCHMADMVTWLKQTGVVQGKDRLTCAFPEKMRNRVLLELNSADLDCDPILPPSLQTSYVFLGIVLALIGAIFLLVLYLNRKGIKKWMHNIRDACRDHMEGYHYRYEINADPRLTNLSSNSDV

human 5T4 on cells [2] = molecular target: T2, human 5T4 on cells (human, UniProt Q13641 32-420); assay: FACS, CHO cells over expressing human 5T4
T2 construct: whole, on cells; also called CHO cells over expressing human 5T4; MCF-7 (endogenous 5T4)
T2 sequence (looked up): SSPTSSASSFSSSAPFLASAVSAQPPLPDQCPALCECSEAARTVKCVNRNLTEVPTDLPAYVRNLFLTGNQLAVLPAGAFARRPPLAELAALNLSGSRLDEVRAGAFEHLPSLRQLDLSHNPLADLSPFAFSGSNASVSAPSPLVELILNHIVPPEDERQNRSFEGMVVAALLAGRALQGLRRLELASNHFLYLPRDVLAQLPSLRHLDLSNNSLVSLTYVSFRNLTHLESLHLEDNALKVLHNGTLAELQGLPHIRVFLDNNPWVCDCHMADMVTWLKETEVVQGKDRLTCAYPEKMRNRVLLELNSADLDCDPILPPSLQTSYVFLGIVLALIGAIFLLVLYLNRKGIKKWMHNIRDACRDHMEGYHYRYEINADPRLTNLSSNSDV

[3] = molecular target: T3, recombinant human 5T4 ECD protein fused to human Fc (human, UniProt Q13641 32-355); assay: Octet, mAb on AMC sensor, 5T4-ECD Fc as analyte
T3 construct: extracellular domain; Immunogen, ELISA antigen and Octet analyte; also called 5T4-ECD-hFc; 5T4-ECD-Fc; not shown: human Fc
T3 sequence (looked up): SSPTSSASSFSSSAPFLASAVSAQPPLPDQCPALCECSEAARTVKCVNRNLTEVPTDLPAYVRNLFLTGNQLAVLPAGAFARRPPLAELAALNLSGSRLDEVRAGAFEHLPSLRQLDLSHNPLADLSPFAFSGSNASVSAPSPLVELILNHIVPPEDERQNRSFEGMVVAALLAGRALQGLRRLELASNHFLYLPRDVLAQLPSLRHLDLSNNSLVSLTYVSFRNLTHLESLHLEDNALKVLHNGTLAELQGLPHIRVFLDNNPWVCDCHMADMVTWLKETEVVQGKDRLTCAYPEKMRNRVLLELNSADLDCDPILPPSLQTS
Procedure: (§1) Binding Affinities by Octet Test. Briefly, mAb were analyzed by Octet RED 384 instrument, where human 5T4-ECD Fc antigen at 200 nM and 100 nM served as the analyte and the purified mAbs at 5 μg/ml served as the ligand, bound to AMC sensor (anti mouse Fc antibody) with immobilized phase of 180 s, association phase of 300 s, dissociation phase of 180 s.
(§2) FIGS. 7A-7G present the Octet data determined the KD affinities of selected mAb.

[4] = molecular target: T3, recombinant human 5T4 ECD protein fused …; assay: Octet, mAb on AMC sensor, 5T4-Fc as analyte
Procedure: as §1, §2

[5] = molecular target: T3, recombinant human 5T4 ECD protein fused …; assay: ELISA, coated 5T4 antigen
cyno 5T4 on CHO cells [6] = molecular target: T1, cyno 5T4 on CHO cells; assay: FACS, CHO cells over expressing cyno 5T4; remark: listed apart in the source
[7] = molecular target: T3, recombinant human 5T4 ECD protein fused …; assay: ELISA, coated 5T4 antigen; remark: listed apart in the source
human 5T4 on cells [8] = molecular target: T2, human 5T4 on cells; assay: FACS on MCF-7 cells endogenously expressing 5T4; FACS, MCF-7 endogenously expressing 5T4
human 5T4 on cells [9] = molecular target: T2, human 5T4 on cells; assay: FACS on CHO over expressing human 5T4; FACS, CHO over expressing human 5T4
[10] = molecular target: T4, h5T4-His (cat #19845-H08H, Sino Biological) (human, UniProt Q13641 32-355); assay: ELISA on recombinant 5T4 protein; ELISA on recombinant 5T4 protein
T4 construct: also called recombinant 5T4 protein; 5T4 recombinant antigen protein; not shown: His tag
T4 sequence (looked up): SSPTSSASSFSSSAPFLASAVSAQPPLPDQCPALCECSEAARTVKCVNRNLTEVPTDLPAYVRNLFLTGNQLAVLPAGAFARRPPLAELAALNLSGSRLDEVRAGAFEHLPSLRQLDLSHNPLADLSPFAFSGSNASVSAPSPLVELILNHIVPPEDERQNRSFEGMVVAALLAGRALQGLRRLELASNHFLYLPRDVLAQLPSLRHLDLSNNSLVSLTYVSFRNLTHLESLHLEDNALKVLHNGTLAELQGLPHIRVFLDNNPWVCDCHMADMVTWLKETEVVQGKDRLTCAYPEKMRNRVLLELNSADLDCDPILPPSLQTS

cyno 5T4 on CHO cells [11] = molecular target: T1, cyno 5T4 on CHO cells; assay: FACS on CHO over expressing cyno 5T4 (data not shown); FACS, CHO over expressing cyno 5T4
human 5T4 on cells [12] = molecular target: T2, human 5T4 on cells; assay: FACS, CHO cells over expressing human 5T4; remark: listed apart in the source
cyno 5T4 on CHO cells [13] = molecular target: T1, cyno 5T4 on CHO cells; assay: FACS, CHO cells over expressing cyno 5T4; remark: listed apart in the source
[14] = molecular target: T3, recombinant human 5T4 ECD protein fused …; assay: ELISA, coated 5T4 antigen; remark: listed apart in the source
[15] = molecular target: T3, recombinant human 5T4 ECD protein fused …; assay: ELISA, coated 5T4 antigen; remark: listed apart in the source
[16] = molecular target: T3, recombinant human 5T4 ECD protein fused …; assay: Octet (data not shown; antigen format not stated here)

B3: mAb008-hIgG1 chimeric Ab (antibody, V domains shown)
VH: QVQLQQSGAELMKPGASVKLACKATGYTFTAYWIEWVKQRPGHGLEWIGEILPGRGSTNSNEKFKGKATFTADTSSNTVYMQLSSLTTEDSAIFYCARGYRDFDYWGQGTTLTVSS
VL: DIVMTQSQKFMSTTVGDRVSIICKASQNVGTAVAWYQQKPGQSPKVLIYSASNRYTGVPDRFTGSGSGTDFTLTISNMQSEDLADYFCQQYTSYPRTFGGGTKLEIK
notes: Mouse VH and VL of mAb008 cloned into human IgG1
EC50 (human 5T4 on cells [8]): 4.4 nM
EC50 (human 5T4 on cells [9]): 5 nM
EC50 [10]: 0.4 nM
EC50 (cyno 5T4 on CHO cells [11]): 5.7 nM

B5: mAb003 (antibody, V domains shown)
VH: QVQLQQSGAELMKPGASVKLSCKATGYTFTGYWIEWVKQRPGHGLEWIGEILPGRDSTNSNEKFKGKATFTADTSSNTVYMQLSSLTTEDSAIFYCARGYRDFDYWGQGTTLTVSS
VL: DIVMTQSQKFMSTTVGDRVSIICKASQNVGTAVAWYQQKPGQSPKVLIYSASNRYTGVPDRFTGSGSGTDFTLTISNMQSEDLADYFCQQYSSYPRTFGGGTKLEIK
notes: also called IM, 5T4 mouse hybridoma cl-3
EC50 (read off the curve) (human 5T4 on cells [12]): ~4 nM
EC50 (read off the curve) (cyno 5T4 on CHO cells [13]): ~5 nM
EC50 (read off the curve) [14]: ~0.4 nM

B7: mAb018 (antibody, V domains shown)
VH: EVQLRQSGPVLVKPGASLKMSCKASGFTIADYYMTWVTQSHGQSLDWIGLINPYSGETTYNQKFKGKATLSVDKSSNTAYMDLNSLTSEDSAVYYCARWRLGYYAMDYWGRGTSVTVSS
VL: ENVLTQSPAIMSASPGEKVTMTCSASSSVSYMHWYQQKSSTSPKVWIYDTSKLASGVPGRFSGSGSGNSYSLTISSMEAEDVATYYCFQGIGYPYTFGGGTKLEIK
notes: also called IM, 5T4 mouse hybridoma cl-18
binding result (cyno 5T4 on CHO cells [6]): binds
EC50 (read off the curve) [15]: ~0.3 nM
Kd [3]: 0.269 nM
koff [4]: 6.97e-05 s⁻¹
kon [4]: 259000 M⁻¹ s⁻¹

B9: mAb006 (antibody, V domains shown)
VH: EVQLVESGGGLVKPGGSLKLSCAASGFTFSNYVMSWVRQTPEKRLEWVATISDRGSYTYYPDYVKGRFTISRDNAKNNLYLQMSHLKSEDTAMYYCARASYYSNLGFAYWGQGTLVTVSA
VL: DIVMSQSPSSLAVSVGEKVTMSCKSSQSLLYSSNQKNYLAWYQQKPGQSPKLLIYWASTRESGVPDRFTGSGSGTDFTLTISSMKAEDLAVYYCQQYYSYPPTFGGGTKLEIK
notes: also called IM, 5T4 mouse hybridoma cl-6
binding result (cyno 5T4 on CHO cells [13]): binds
Kd [3]: 5.67 nM
koff [4]: 0.00125 s⁻¹
kon [4]: 220000 M⁻¹ s⁻¹

B10: mAb005 (antibody, V domains shown)
VH: EVQLVESGGGLVQPKGSLQLSCAASGFTFNTYAMHWVRQAPGKGLEWVARIRSKSSNYATYYADSVKDRFTISRDDSQSMLYLQMNNLKTEDTAMYYCVRDGDYYYGSRPSYWYFDVWGTGTTVTVSS
VL: DILLTQSPAILSVSPGERVSFSCRASQSIGTNIHWYQQRTNGSPRLLIKYASESISGIPSRFSGSGSGTDFTLSINNVESEDIADYYCQQTNTWPLTFGAGTKLDLK
notes: also called IM, 5T4 mouse hybridoma cl-5
Kd [3]: 2.69 nM
koff [4]: 0.00024 s⁻¹
kon [4]: 89300 M⁻¹ s⁻¹

Further lines, results first:

EC50 (read off the curve) (cyno 5T4 on CHO cells [1]): ~5 nM
EC50 (read off the curve) (human 5T4 on cells [2]): ~5 nM
Kd [3]: 0.209 nM
koff [4]: 3.87e-05 s⁻¹
kon [4]: 185000 M⁻¹ s⁻¹
EC50 (read off the curve) [5]: ~0.3 nM
B1: mAb008 (antibody, V domains shown)
VH: QVQLQQSGAELMKPGASVKLACKATGYTFTAYWIEWVKQRPGHGLEWIGEILPGRGSTNSNEKFKGKATFTADTSSNTVYMQLSSLTTEDSAIFYCARGYRDFDYWGQGTTLTVSS
VL: DIVMTQSQKFMSTTVGDRVSIICKASQNVGTAVAWYQQKPGQSPKVLIYSASNRYTGVPDRFTGSGSGTDFTLTISNMQSEDLADYFCQQYTSYPRTFGGGTKLEIK
notes: also called IM, 5T4 mouse hybridoma cl-8

binding result (cyno 5T4 on CHO cells [6]): binds
EC50 (read off the curve) [7]: ~0.2 nM
B2: mAb014 (antibody, V domains shown)
VH: QVQLQQSGGELMKPGASVKLSCKATGYKFTGYWIEWVKQRPGHGLEWIGEILPGRGSTNYNEKFKGKATFTADTSSNTVYMQLSSLTTEDSAIYYCARGGRDFDFWGQGSTLTVSS
VL: DIQMTQTTSSLSASLGDRVTISCSASQGINSNLNWYQQKPDGTVKLLIYYTSSLHSGVPSRFSGSGSGTDYSLTISNLEPEDIATYYCQQYNKLPYTFGGGTKLEIK
notes: also called IM, 5T4 mouse hybridoma cl-14

EC50 (read off the curve) (cyno 5T4 on CHO cells [1]): ~4 nM
EC50 (read off the curve) (human 5T4 on cells [2]): ~3 nM
Kd [3]: 0.463 nM
koff [4]: 9.53e-05 s⁻¹
kon [4]: 206000 M⁻¹ s⁻¹
EC50 (read off the curve) [5]: ~0.3 nM
B4: mAb010 (antibody, V domains shown)
VH: QVQLRQSGAELMKPGASVKLSCKATGYTFTGYWIEWVKQRPGHGLEWIGEILPGRGSSNYNEKFKGKATLTADTSSNTVYMQLSSLTIEDSAIYYCARGGRDFDYWGQGTTLTVSS
VL: DIQMTQITSSLSASLGDRVTIGCSASQGINNNLNWYQQKPDGTVKLLVYYTSSLHSGVPSRFSGSGSGTDYSLTISNLEPEDIATYYCQQFIKLPYTFGGGTKLEIK
notes: also called mAb10; IM, 5T4 mouse hybridoma cl-10

EC50 (read off the curve) [15]: ~0.2 nM
Kd [3]: 0.232 nM
koff [4]: 3.48e-05 s⁻¹
kon [4]: 150000 M⁻¹ s⁻¹
B6: mAb016 (antibody, V domains shown)
VH: AVQLQQSGPVRVKPGASVKMSCKASGYPFTDYYMNWVKQSHGRSLDWIGVFNPYNGDTRYTQKFKDKATLTIDKSSSTAYMELNSLTSEDSAVYYCARLRLLYDTSEYYVMDYWGQGTSVTVSS
VL: ENVLTQSPAIMSASPGEKVTMTCSASSSVNYMHWYQQKSNTSPKLWIYDTSKLASGVPGRFSGSGSGNSYSLTISSMEAEDVATYFCFQGSGYPYTFGGGTKLEIK
notes: also called mAb0016; IM, 5T4 mouse hybridoma cl-16

EC50 (human 5T4 on cells [8]): 0.9 nM
EC50 (human 5T4 on cells [9]): 1.1 nM
Kd [16]: 14.7 nM
EC50 [10]: 0.3 nM
EC50 (cyno 5T4 on CHO cells [11]): 2.2 nM
B8: mAb016-hIgG1 chimeric Ab (antibody, V domains shown)
VH: AVQLQQSGPVRVKPGASVKMSCKASGYPFTDYYMNWVKQSHGRSLDWIGVFNPYNGDTRYTQKFKDKATLTIDKSSSTAYMELNSLTSEDSAVYYCARLRLLYDTSEYYVMDYWGQGTSVTVSS
VL: ENVLTQSPAIMSASPGEKVTMTCSASSSVNYMHWYQQKSNTSPKLWIYDTSKLASGVPGRFSGSGSGNSYSLTISSMEAEDVATYFCFQGSGYPYTFGGGTKLEIK
notes: Mouse VH and VL of mAb016 cloned into human IgG1; also called mAb0016-IgG1

From patent publication US20240228658A1 (IMMUNORIZON, published 2024)
